According to paper doi:10.1101/2022.10.06.510747:
Read-outs that look alike come from different tables or passages of the source.

Legend:
[1] = target: PfTGS1-NLS-GFP (bi-partite NLS of P. falciparum trimethyl guanosine synthase 1 fused to GFP) (Plasmodium falciparum); assay: SPR
[2] = target: PfTGS1-NLS-GFP (bi-partite NLS of P. falciparum trimethyl guanosine synthase 1 fused to GFP) (Plasmodium falciparum); assay: SPR; remark: listed apart in the source
[3] = target: SV40 T-ag-NLS-GFP (SV40); assay: AlphaScreen or HTRF
[4] = target: ΔIBB-TgImpα (T. gondii importin α lacking the IBB domain, amino acids 92-545, C-terminal His-tag) (Toxoplasma gondii); assay: pull-down

Substance | Kd [1] [nM] | further results
KRR-TgImpα (KKR/KRR mutant of the third basic cluster) (natural protein) | 1450 | 
SKR-TgImpα (KKR/SKR mutant of the third basic cluster) (natural protein) | 410 | 
MmHinge-TgImpα (TgImpα chimera containing the hinge motif from MmImpα2) (from UniProt P52293 57-70) | 5.1 | 
ΔIBB-TgImpα (T. gondii importin α lacking the IBB domain, amino acids 92-545, C-terminal His-tag) (domain or fragment) |  | Kd [2]: 240 nM
WT-TgImpα (full-length Toxoplasma gondii importin α with C-terminal His-tag) (natural protein) | 3.26 | Kd [2]: 830 nM
WT-TgImpα with a C-terminal GST tag (from UniProt A0A125YID0 1-545) (natural protein) |  | Kd [3]: 3.5 nM
PfTGS1-NLS-GFP (bi-partite NLS of P. falciparum trimethyl guanosine synthase 1 fused to GFP) (domain or fragment) |  | relative band intensity (pulled down by ΔIBB-TgImpα over WT-TgImpα) [4]: 4.6
pre-dimerized TgImpα/MmImpβ1 (from UniProt P70168 1-876) (complex) |  | Kd [3]: 1.5 nM
AAA-TgImpα (KKR/AAA mutant of the third basic cluster) (natural protein) | 280 | 
